Assay results: US20240240209A1, “SYNTHESIS OF ENANTIOPURE CIS-A-IRONE FROM A RENEWABLE CARBON SOURCE” (Agency for Science, Technology and Research, priority 2021, published 2024)
Substitutions are numbered along the chain they refer to. Names and notes keep the numbering of the source.

Test: In-vivo cis-α-irone production screening of pMT7 and pMT12 mutants
Type: cell-based, Escherichia coli
Details: for Fold change in in-vivo cis-α-irone production: mutations made to pMT12, normalized to pMT12 (=1); for in-vivo production of cis-α-irone (in words): single mutations vs parent (pMT7 or pMT12)
Source text: Q60 was identified as another possible mutation site.
FIGS. 24a and 24b show the in-vivo and in-vitro cis-α-irone production of other possible single mutations to pMT12. The in-vitro results in FIG. 24b validate the mutations and in-vivo results in FIG. 24a. The mutations in FIG. 24 include Q11H (SEQ ID No. 23), V12R (SEQ ID No. 24), A95C (SEQ ID No. 25), H123Q (SEQ ID No. 26), E127T (SEQ ID No. 27), M137T (SEQ ID No. 28), D176V (SEQ ID No. 29), D176Y (SEQ ID No. 30). P191S (SEQ ID No. 31), P191V (SEQ ID No. 32), F212L (SEQ ID No. 33), S268H (SEQ ID No. 34), AND T272A (SEQ ID No. 35). The screening results in FIGS. 24 and 25 are semi-quantitative to identify beneficial mutants that give greater than one-fold change of irone production as compared to pMT12.
FIGS. 25a to 25c (and Table 4) show the in-vivo testing results of other possible mutations that may be made to pMT12 to improve its in-vivo production of cis-α-irone. FIGS. 25a to 25c each include two dotted lines to account for a 10% error bar to show the normalized fold change of 0.9 and 1.1.
The four plasmids were transformed into E. coli BL21 (DE3), ΔaroA, ΔaroB, ΔaroC, ΔserC or E. coli BL21 (DE3), ΔaroA, ΔaroB, ΔaroC, ΔserC, ΔmetJ strains and plated on Agar plate containing LB media (10 g, tryptone. 5 g, yeast extract. 10 g, NaCl) supplemented with appropriate antibiotics (100 mg/L ampicillin, 34 mg/L chloramphenicol, 50 mg/L kanamycin, and 100 mg/L spectinomycin). One colony was picked and inoculate into LB media with antibiotics. 1% of overnight culture was inoculated into 1 ml fresh auto-inducing chemically defined media. The chemical media contains carbon source solution: 0.5 g/L glucose, 10 g/L glycerol; inducer: 30 mM lactose and base media: 2 g/L ammonium sulfate, 4.2 g/L KH2PO4, 11.24 g/L K2HPO4, 1.7 g/L citric acid, 0.5 g/L MgSO4, and 10 mL/L trace element solution. The trace element solution (100×) contained 0.25 g/L CoCl2·6H2O, 1.5 g/L MnSO4·4H2O, 0.15 g/L CuSO4·2H2O, 0.3 g/L H3BO3, 0.25 g/L Na2MoO4·2H2O, 0.8 g/L Zn(CH3COO)2, 5 g/L Fe(III) citrate, and 0.84 g/L ethylenediaminetetra-acetic acid (EDTA) at pH 8.0. The culture was grown at 28° C. for 3 days and the products were extracted with 1 ml hexane for GCMS analysis. An example of a fed-batch process for α-ionone Is briefly described, overnight culture was inoculated into 2 L chemical media comprising the base media and 5 g/L glucose, at 37° C. and 30% DO. pH was controlled at 7 with base solution (14% ammonia and 0.5 M NaOH). Feed media (500 g/L glucose and 5 g/L MgSO4) was added into bioreactor once OD600 reached 5, at a rate of 7.15-25.75 g/h glucose for about 4-5 h until OD600 reached ˜30-40. Subsequently, 0.1 mM IPTG was added to induce the production, and feeding rate was kept at a constant rate of 10 g/h glucose, and the temperature was reduced to 30° C. DO was adjusted to 2% or 10%. Feeding was stopped at 113 h when 2 L feeding media was finished, but the culture was further incubated for 24 h. To capture the evaporated products, the exhaust was connected to 25 ml sunflower oil.

B1: D176L: pMT12 with D176L (protein)
chain: MPQEARTPQQQVTADEVGDWYDKFGEVYHLTLGESVHCGLWFPPDAPVPQDMELVTMSSQAQDRFTDYLIETLDPKAGQHLLDIGCGTGRPALKAARQRGIAVTGVAVSKEQIAAANRLAAGHGLTERLTFEVADAMRLPYEDESFDCAWAIESLDHMDRAKALGEAWRVLKPGGLLLVAEEVVTEELTEPETALFETLFALNVPPRLGEFFDIVSGAGFHTLSLKDLSADLAMTMNVFALGVYSRRAEFTERFGAEFVDGLLAGLGSAQETVIRKTRFFMATLRKPAV
modifications: Modified from pMT1
Fold change in in-vivo cis-α-irone production: 2.52 | in-vivo production of cis-α-irone (in words): significant improvement

B2: D176K (protein)
chain: B1 chain with L176K
modifications: Modified from pMT1
Fold change in in-vivo cis-α-irone production: 1.90 | in-vivo production of cis-α-irone (in words): significant improvement

B3: D176R (protein)
chain: B1 chain with L176R
modifications: Modified from pMT1
Fold change in in-vivo cis-α-irone production: 1.80 | in-vivo production of cis-α-irone (in words): significant improvement

B4: V12K (protein)
chain: B1 chain with V12K, L176D
modifications: Modified from pMT1
Fold change in in-vivo cis-α-irone production: 1.00

B5: P191K (protein)
chain: B1 chain with L176D, P191K
modifications: Modified from pMT1
Fold change in in-vivo cis-α-irone production: 1.26

B6: T13Q (protein)
chain: B1 chain with T13Q, L176D
modifications: Modified from pMT1
Fold change in in-vivo cis-α-irone production: 0.93

B7: L129K (protein)
chain: B1 chain with L129K, L176D
modifications: Modified from pMT1
Fold change in in-vivo cis-α-irone production: 1.00

B8: P191I (protein)
chain: B1 chain with L176D, P191I
modifications: Modified from pMT1
Fold change in in-vivo cis-α-irone production: 1.31

B9: M137G (protein)
chain: B1 chain with M137G, L176D
modifications: Modified from pMT1
Fold change in in-vivo cis-α-irone production: 1.15

B10: H123S (protein)
chain: B1 chain with H123S, L176D
modifications: Modified from pMT1
Fold change in in-vivo cis-α-irone production: 0.84

B11: Q60K (protein)
chain: B1 chain with Q60R, P91T, D156C, L176D, D231N
modifications: Modified from pMT1
in-vivo production of cis-α-irone (in words): increased cis-α-irone production in-vivo

B12: L129C (protein)
chain: B1 chain with L129C, L176D
modifications: Modified from pMT1
Fold change in in-vivo cis-α-irone production: 1.08

B13: E190P, G122S (protein)
chain: B1 chain with G122S, L176D, E190P
Fold change in in-vivo cis-α-irone production: 1.02

B14: E127G (protein)
chain: B1 chain with E127G, L176D
modifications: Modified from pMT1
Fold change in in-vivo cis-α-irone production: 0.98

B15: Q60R (protein)
chain: B1 chain with Q11H, L176D
modifications: Modified from pMT1
in-vivo production of cis-α-irone (in words): increased cis-α-irone production in-vivo

B16: T13G (protein)
chain: B1 chain with T13G, L176D
modifications: Modified from pMT1
Fold change in in-vivo cis-α-irone production: 0.91

B17: E192S (protein)
chain: B1 chain with L176D, E192S
modifications: Modified from pMT1
Fold change in in-vivo cis-α-irone production: 0.97

B18: T126E (protein)
chain: B1 chain with T126E, L176D
modifications: Modified from pMT1
Fold change in in-vivo cis-α-irone production: 0.88

B19: T13L (protein)
chain: B1 chain with T13L, L176D
modifications: Modified from pMT1
Fold change in in-vivo cis-α-irone production: 0.97

B20: T13A (protein)
chain: B1 chain with T13A, L176D
modifications: Modified from pMT1
Fold change in in-vivo cis-α-irone production: 0.91

B21: P191Y (protein)
chain: B1 chain with L176D, P191Y
modifications: Modified from pMT1
Fold change in in-vivo cis-α-irone production: 1.29

B22: L195I (protein)
chain: B1 chain with L176D, L195I
modifications: Modified from pMT1
Fold change in in-vivo cis-α-irone production: 1.08

B23: V12G (protein)
chain: B1 chain with V12G, L176D
modifications: Modified from pMT1
Fold change in in-vivo cis-α-irone production: 0.97

B24: T13M (protein)
chain: B1 chain with T13M, L176D
modifications: Modified from pMT1
Fold change in in-vivo cis-α-irone production: 0.97

B25: L129V (protein)
chain: B1 chain with L129V, L176D
modifications: Modified from pMT1
Fold change in in-vivo cis-α-irone production: 1.03

B26: H123Q (protein)
chain: B1 chain with H123Q, L176D
modifications: Modified from pMT1
Fold change in in-vivo cis-α-irone production: 0.87

B27: T126S (protein)
chain: B1 chain with T126S, L176D
modifications: Modified from pMT1
Fold change in in-vivo cis-α-irone production: 0.96

B28: V12A (protein)
chain: B1 chain with V12A, L176D
modifications: Modified from pMT1
Fold change in in-vivo cis-α-irone production: 0.97

B29: E190Q (protein)
chain: B1 chain with L176D, E190Q
modifications: Modified from pMT1
Fold change in in-vivo cis-α-irone production: 2.90 | in-vivo production of cis-α-irone (in words): significant improvement

B30: Q11W (protein)
chain: B1 chain with Q11W, L176D
modifications: Modified from pMT1
Fold change in in-vivo cis-α-irone production: 0.90

B31: P191L (protein)
chain: B1 chain with L176D, P191L
modifications: Modified from pMT1
Fold change in in-vivo cis-α-irone production: 1.12
